The target in the data set is T1, Aiolos (GST fusion) (Mus musculus, UniProt O08900 SEQ:1-507).
T1 chain: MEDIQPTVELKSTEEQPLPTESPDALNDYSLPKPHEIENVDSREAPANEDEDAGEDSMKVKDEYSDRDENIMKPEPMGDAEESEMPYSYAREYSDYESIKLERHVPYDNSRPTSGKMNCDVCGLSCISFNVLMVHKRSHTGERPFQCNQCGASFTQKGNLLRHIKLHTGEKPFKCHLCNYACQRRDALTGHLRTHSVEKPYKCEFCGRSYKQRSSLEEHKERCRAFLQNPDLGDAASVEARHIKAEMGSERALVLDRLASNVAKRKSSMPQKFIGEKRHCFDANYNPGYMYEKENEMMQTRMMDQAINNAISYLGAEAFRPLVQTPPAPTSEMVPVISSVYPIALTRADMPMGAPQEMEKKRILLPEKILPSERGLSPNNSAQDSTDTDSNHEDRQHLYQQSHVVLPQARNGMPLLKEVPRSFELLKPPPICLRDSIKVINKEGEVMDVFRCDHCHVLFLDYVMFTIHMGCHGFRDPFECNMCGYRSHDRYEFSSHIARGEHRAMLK
As to the kind of experiment: EMSA; 0.5 ug protein, 1-2 ng DNA; binding stated generally for Ikaros consensus sites. The conditions noted are these: tags: GST. As for the experimental part: DNA binding assays (EMSA) were performed essentially as described in Molnar et al. (1994) Mol. Cell. Biol. 14, 8292-8303. GST-Aiolos and Ikaros fusion proteins and their GST fusion partner (0.5 μg) were tested for binding to the IkBD1-[…] (SEQ ID NO:11) oligonucleotide which contains a high affinity Ikaros binding site (100,000 cpm/reaction which equals 1 to 2 ngs of DNA). Competition assays were performed with Ik-BS 1 and with Ik-BS8 TCAGCTTTTGGGggTACCCTGTCA (SEQ ID NO:12) oligonucleotides used at 5-100× molar excess.
A general note: In EMSA bound probe runs differently from free probe, usually more slowly.

B1: IkBS1 (dsDNA)
DNA 1: TCAGCTTTTGGGAATACCCTGTCA
DNA 2: TGACAGGGTATTCCCAAAAGCTGA
In the case of B1, the binding result is listed as “binds”.

These data come from patent publication US20050130265, “Aiolos, Helios, Daedalos and Ikaros: genes, polypeptides, regulatory elements and uses thereof” (published 2005).
